Molecular target: Her-2 (human) (UniProt P04626)
Experiment: antibody titration on FFPE SKBR-3 (positive) and MDA-MB-468 (negative) cells, non-proximal direct VeraTag release with 200 uM methylene blue, multi-parameter curve fit, single site

Substance “Ab8-Pro11 (monoclonal antibody Ab8 against the cytoplasmic domain of HER2, Lab Vision, conjugated to VeraTag reporter Pro11)” has a Kd of 8 µg/mL.

Source: KR20110120890A
